In publication PMC4210868:

Target: DDAGNRQP-fused pVIII protein (phage fd (fd-tet)) (UniProt P69539)
Test: tricine-SDS-PAGE

“DDAGNRQP-fused pVIII protein (from UniProt P69539 24-73)” was tested, and the stoichiometry N was 2.
